In article PMC5655499, “Peptide array-based screening reveals a large number of proteins interacting with the ankyrin-repeat domain of the zDHHC17 S-acyltransferase” (The Journal of Biological Chemistry, 2017) one finds screen value data, which are given here for 97 variants.

To fix the notation:
B1: SNAP25 15-mer peptide (wild type) containing the zDABM [not stated] / His6-tagged AR domain (residues 51–288) of zDHHC17 [human] (parent)
chain 1: THIDDYSTWDIVKATQYGIYERCRELVEAGYDVRQPDKENVTLLHWAAINNRIDLVKYYISKGAIVDQLGGDLNSTPLHWATRQGHLSMVVQLMKYGADPSLIDGEGCSCIHLAAQFGHTSIVAYLIAKGQDVDMMDQNGMTPLMWAAYRTHSVDPTRLLLTFNVSVNLGDKYHKNTALHWAVLAGNTTVISLLLEAGANVDAQNIKGESALDLAKQRKNVWMINHLQEARQAKGYDN
chain 2: QDGVVASQPARVVDE
B2: CSPα 15-mer peptide (wild type) containing the zDABM [not stated] / His6-tagged AR domain (residues 51–288) of zDHHC17 [human] (parent)
chain 1: B1 chain 1
chain 2: TDTPIVIQPASATET
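Note: PSSM score: binding signal versus wild type scaled to sum 1 per position.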

One test covers variants of B1. Kind of test: far-Western blotting on peptide array. The note with it: with His6-tagged AR domain (residues 51–288) of zDHHC17 [human]; ARzD17-His 500 nm in PBS-T, overnight, 4 °C.
Take chain 2 QDGVVAPQPARVVDE [chain 2 S7P]: the screen value is less than 0.005.
With chain 2 QDGVVAGQPARVVDE [chain 2 S7G], the screen value is less than 0.005.
The same measure, in the same setting: the value for chain 2 QDGVVGSQPARVVDE [chain 2 A6G] was less than 0.005; that for chain 2 QDGVVPSQPARVVDE [chain 2 A6P] was less than 0.005; that for chain 2 QDGVVASQCARVVDE [chain 2 P9C] was less than 0.005.
For the variant chain 2 QDGVVASQAARVVDE [chain 2 P9A], the screen value is less than 0.005.
Still for that read-out and setting: the value for chain 2 QDGVVASQMARVVDE [chain 2 P9M] was less than 0.005.
Turning to chain 2 QDGVVASQRARVVDE [chain 2 P9R], the screen value was less than 0.005.
In the case of chain 2 QDGVVASQFARVVDE [chain 2 P9F], the screen value was less than 0.005.
Consider chain 2 QDGVVASQWARVVDE [chain 2 P9W], for which the screen value was less than 0.005.
The same measure, in the same setting: the value for chain 2 QDGVVASQNARVVDE [chain 2 P9N] was less than 0.005; that for chain 2 QDGVVASQSARVVDE [chain 2 P9S] was less than 0.005; that for chain 2 QDGVVASQHARVVDE [chain 2 P9H] was less than 0.005.
chain 2 QDGVVASQYARVVDE [chain 2 P9Y]: the screen value is less than 0.005.
With chain 2 QDGVVASQVARVVDE [chain 2 P9V], the screen value was less than 0.005.
For the variant chain 2 QDGVVASQTARVVDE [chain 2 P9T], the screen value is less than 0.005.
With chain 2 QDGVVASQEARVVDE [chain 2 P9E], the screen value is less than 0.005.
Take chain 2 QDGVVASQLARVVDE [chain 2 P9L]: the screen value is less than 0.005.
Take chain 2 QDGVVASQQARVVDE [chain 2 P9Q]: the screen value is less than 0.005.
In the case of chain 2 QDGVVASQGARVVDE [chain 2 P9G], the screen value was less than 0.005.
As to chain 2 QDGVVASQKARVVDE [chain 2 P9K], the screen value is less than 0.005.
For the variant chain 2 QDGVVASQDARVVDE [chain 2 P9D], the screen value is less than 0.005.
On the same count and under the same terms, the value for chain 2 QDGVEASQPARVVDE [chain 2 V5E] was less than 0.005; that for chain 2 QDGVAASQPARVVDE [chain 2 V5A] was less than 0.005; that for chain 2 QDGVTASQPARVVDE [chain 2 V5T] was less than 0.005.
Regarding chain 2 QDGVGASQPARVVDE [chain 2 V5G], the screen value is less than 0.005.
For chain 2 QDGVNASQPARVVDE [chain 2 V5N], the screen value was less than 0.005.
In the case of chain 2 QDGVPASQPARVVDE [chain 2 V5P], the screen value is less than 0.005.
As to chain 2 QDGVSASQPARVVDE [chain 2 V5S], the screen value is less than 0.005.
For chain 2 QDGVLASQPARVVDE [chain 2 V5L], the screen value was less than 0.005.
Consider chain 2 QDGVHASQPARVVDE [chain 2 V5H], for which the screen value was less than 0.005.
As for chain 2 QDGVYASQPARVVDE [chain 2 V5Y], the screen value is less than 0.005.
For chain 2 QDGVMASQPARVVDE [chain 2 V5M], the screen value is less than 0.005.
Take chain 2 QDGVKASQPARVVDE [chain 2 V5K]: the screen value was less than 0.005.
chain 2 QDGVDASQPARVVDE [chain 2 V5D]: the screen value is less than 0.005.
The same measure, in the same setting: the value for chain 2 QDGVWASQPARVVDE [chain 2 V5W] was less than 0.005.
Consider chain 2 QDGVQASQPARVVDE [chain 2 V5Q], for which the screen value was less than 0.005.
Regarding chain 2 QDGVVASQPANVVDE [chain 2 R11N], the screen value was less than 0.005.
Turning to chain 2 QDGVVASQPALVVDE [chain 2 R11L], the screen value is less than 0.005.
As for chain 2 QDGVVASQPATVVDE [chain 2 R11T], the screen value is less than 0.005.
Still for that read-out and setting: the value for chain 2 QDGVVASQPAEVVDE [chain 2 R11E] was less than 0.005.
Take chain 2 QDGVVASQPAQVVDE [chain 2 R11Q]: the screen value was less than 0.005.
Still for that read-out and setting: the value for chain 2 QDGVVASQPAVVVDE [chain 2 R11V] was less than 0.005; that for chain 2 QDGVVASQPAIVVDE [chain 2 R11I] was less than 0.005.
For the variant chain 2 QDGVVASQPAMVVDE [chain 2 R11M], the screen value is less than 0.005.
Turning to chain 2 QDGVVASQPAYVVDE [chain 2 R11Y], the screen value was less than 0.005.
Turning to chain 2 QDGVVASQPAFVVDE [chain 2 R11F], the screen value is less than 0.005.
Regarding chain 2 QDGVVASQPADVVDE [chain 2 R11D], the screen value was less than 0.005.
Consider chain 2 QDGVVASFPARVVDE [chain 2 Q8F], for which the screen value was less than 0.005.
In the case of chain 2 QDGVVASGPARVVDE [chain 2 Q8G], the screen value is less than 0.005.
Consider chain 2 QDGVVASNPARVVDE [chain 2 Q8N], for which the screen value was less than 0.005.
Still for that read-out and setting: the value for chain 2 QDGVVASIPARVVDE [chain 2 Q8I] was less than 0.005.
Regarding chain 2 QDGVVASVPARVVDE [chain 2 Q8V], the screen value was less than 0.005.
chain 2 QDGVVASSPARVVDE [chain 2 Q8S]: the screen value is less than 0.005.
chain 2 QDGVVASYPARVVDE [chain 2 Q8Y]: the screen value was less than 0.005.
In the case of chain 2 QDGVVASPPARVVDE [chain 2 Q8P], the screen value is less than 0.005.
On to chain 2 QDGVVASWPARVVDE [chain 2 Q8W], for which the screen value was less than 0.005.
The same measure, in the same setting: the value for chain 2 QDGVVASHPARVVDE [chain 2 Q8H] was less than 0.005.
chain 2 QDGVVASAPARVVDE [chain 2 Q8A]: the screen value was less than 0.005.
Consider chain 2 QDGVVASEPARVVDE [chain 2 Q8E], for which the screen value was less than 0.005.
With chain 2 QDGVVASTPARVVDE [chain 2 Q8T], the screen value is less than 0.005.
In the case of chain 2 QDGVVASDPARVVDE [chain 2 Q8D], the screen value was less than 0.005.
chain 2 QDGVVASQPDRVVDE [chain 2 A10D]: the screen value is less than 0.005.
As for chain 2 QDGVVASQPARDVDE [chain 2 V12D], the screen value is less than 0.005.
Regarding chain 2 QDGVVASQPAREVDE [chain 2 V12E], the screen value is less than 0.005.
Consider chain 2 QDGWVASQPARVVDE [chain 2 V4W], for which the screen value is less than 0.005.
chain 2 QDGSVASQPARVVDE [chain 2 V4S]: the screen value was less than 0.005.
On to chain 2 QDGYVASQPARVVDE [chain 2 V4Y], for which the screen value was less than 0.005.
Same read-out and setting: the value for chain 2 QDGMVASQPARVVDE [chain 2 V4M] was less than 0.005.
Same read-out and setting: the value for chain 2 QDGLVASQPARVVDE [chain 2 V4L] was less than 0.005; that for chain 2 QDGQVASQPARVVDE [chain 2 V4Q] was less than 0.005; that for chain 2 QDGAVASQPARVVDE [chain 2 V4A] was less than 0.005.
In the case of chain 2 QDGNVASQPARVVDE [chain 2 V4N], the screen value is less than 0.005.
The same measure, in the same setting: the value for chain 2 QDGDVASQPARVVDE [chain 2 V4D] was less than 0.005; that for chain 2 QDGTVASQPARVVDE [chain 2 V4T] was less than 0.005; that for chain 2 QDGFVASQPARVVDE [chain 2 V4F] was less than 0.005.
Take chain 2 QDGRVASQPARVVDE [chain 2 V4R]: the screen value was less than 0.005.
Consider chain 2 QDGKVASQPARVVDE [chain 2 V4K], for which the screen value is less than 0.005.
Consider chain 2 QDGGVASQPARVVDE [chain 2 V4G], for which the screen value is less than 0.005.
With chain 2 QDGEVASQPARVVDE [chain 2 V4E], the screen value was less than 0.005.
Regarding chain 2 QDGHVASQPARVVDE [chain 2 V4H], the screen value is less than 0.005.

A further test covers variants of B2. Kind of test: far-Western blotting on peptide array. Particulars: with His6-tagged AR domain (residues 51–288) of zDHHC17 [human]; ARzD17-His 500 nm in PBS-T, overnight, 4 °C.
Turning to chain 2 TDTPRVIQPASATET [chain 2 I5R], the screen value is less than 0.005.
Take chain 2 TDTPGVIQPASATET [chain 2 I5G]: the screen value was less than 0.005.
chain 2 TDTPQVIQPASATET [chain 2 I5Q]: the screen value was less than 0.005.
Consider chain 2 TDTPNVIQPASATET [chain 2 I5N], for which the screen value was less than 0.005.
Turning to chain 2 TDTPSVIQPASATET [chain 2 I5S], the screen value was less than 0.005.
For chain 2 TDTPPVIQPASATET [chain 2 I5P], the screen value was less than 0.005.
On to chain 2 TDTPHVIQPASATET [chain 2 I5H], for which the screen value is less than 0.005.
In the case of chain 2 TDTPAVIQPASATET [chain 2 I5A], the screen value is less than 0.005.
In the case of chain 2 TDTPLVIQPASATET [chain 2 I5L], the screen value was less than 0.005.
For chain 2 TDTPFVIQPASATET [chain 2 I5F], the screen value was less than 0.005.
As to chain 2 TDTPKVIQPASATET [chain 2 I5K], the screen value is less than 0.005.
Still for that read-out and setting: the value for chain 2 TDTPMVIQPASATET [chain 2 I5M] was less than 0.005.
The same measure, in the same setting: the value for chain 2 TDTPDVIQPASATET [chain 2 I5D] was less than 0.005.
Still for that read-out and setting: the value for chain 2 TDTPTVIQPASATET [chain 2 I5T] was less than 0.005; that for chain 2 TDTPEVIQPASATET [chain 2 I5E] was less than 0.005; that for chain 2 TDTPIVIQPDSATET [chain 2 A10D] was less than 0.005.
